Experimental data taken from publication PMC12158189, “Rigid DNA Frameworks Anchored Transistor Enabled Ultrasensitive Detection of Aβ-42 in Serum”.

B1: ss-DNA aptamer (Aβ-42 aptamer) (ssDNA)
DNA: AGTCTAGGATTCGGCGTGGGTTAATTTTTTGCTGCCTGTGGTGTTGGGGCGGGTGCG
modifications: 5' NH2-C6
B2: 17bp-5T TDN (tetrahedral DNA nanostructure with Aβ-42 aptamer) (structured_DNA)
DNA 1: AGTCTAGGATTCGGCGTGGGTTAATTTTTTGCTGCCTGTGGTGTTGGGGCGGGTGCGTTTTTACATTCCTAAGTCTGAAACATTACAGCTTGCTACACGAGAAGAGCCGCCATAGTA
DNA 2: TATCACCAGGCAGTTGACAGTGTAGCAAGCTGTAATAGATGCGAGGGTCCAATAC
DNA 3: TCAACTGCCTGGTGATAAAACGACACTACGTGGGAATCTACTATGGCGGCTCTTC
DNA 4: TTCAGACTTAGGAATGTGCTTCCCACGTAGTGTCGTTTGTATTGGACCCTCGCAT
modifications: 5' NH2-C6 on strands B17, C17, D17

How the values were obtained:
[1] = target: T1, Aβ-42 (amyloid beta 1-42) (UniProt P05067 672-713); experiment: G-FET (VDirac shift, Hill fit); five orders of magnitude weaker than TDN; 12.5 mM Mg2+; SI captions say insulin; 1x PBS with 12.5 mM Mg2+, pH 7.0-7.4, room temperature; or full serum; probe immobilized on graphene FET; details: protein: commercial
T1 sequence (P05067 672-713): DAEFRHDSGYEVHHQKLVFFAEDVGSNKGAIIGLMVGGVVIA

[2] = target: T1, Aβ-42 (amyloid beta 1-42); experiment: G-FET (VDirac shift, Ids-t); full serum; 1x PBS with 12.5 mM Mg2+, pH 7.0-7.4, room temperature; or full serum; probe immobilized on graphene FET; details: protein: commercial; DNA tetrahedron of 4 strands, six 17 bp edges, pendant aptamer with 5T spacer
[3] = target: T1, Aβ-42 (amyloid beta 1-42); experiment: G-FET (VDirac shift, Hill fit); pseudo KD; 12.5 mM Mg2+; PBS; 1x PBS with 12.5 mM Mg2+, pH 7.0-7.4, room temperature; or full serum; probe immobilized on graphene FET; details: protein: commercial; DNA tetrahedron of 4 strands, six 17 bp edges, pendant aptamer with 5T spacer

Binder	binding signal [1]	binding result [2]	binding result [3]
B1	~100000 fold higher pseudo KD than TDN	–	–
B2	–	binds	binds
